How the values were obtained:
[1] = target: Gαq-glutathione S-transferase fusion protein; assay: hydroxyl radical alkyl 1H/2H exchange footprinting, LC-MS of DNS-amino acids; 50 µM GST-Gaq/100 µM CTP, 200 µM OH radical
[2] = target: Gαq-glutathione S-transferase fusion protein; assay: hydroxyl radical alkyl 1H/2H exchange footprinting normalised to internal reference 2,4-DNP-Leu; 30 µM GST-Gaq/15.6 µM CTP, 400 µM OH radical
[3] = target: Gαq-glutathione S-transferase fusion protein; assay: hydroxyl radical alkyl 1H/2H exchange footprinting, LC-MS of DNS-amino acids; 50 µM GST-Gaq/100 µM CTP, 400 µM OH radical
[4] = target: Gαq-glutathione S-transferase fusion protein; assay: hydroxyl radical alkyl 1H/2H exchange footprinting normalised to internal reference 2,4-DNP-Leu; 50 µM GST-Gaq/100 µM CTP, 200 µM OH radical
[5] = target: Gαq-glutathione S-transferase fusion protein; assay: hydroxyl radical alkyl 1H/2H exchange footprinting normalised to internal reference 2,4-DNP-Leu; 50 µM GST-Gaq/100 µM CTP, 400 µM OH radical
[6] = target: Gαq-glutathione S-transferase fusion protein; assay: hydroxyl radical alkyl 1H/2H exchange footprinting, LC-MS of DNS-amino acids; 30 µM GST-Gaq/15.6 µM CTP, 400 µM OH radical

SNEQKACKVLGI [C-terminal peptide (…) of the third intracellular loop of the 5-hydroxytryptamine2A receptor]
Δ Isotope Ratio free/Δ Isotope Ratio bound (residue Ala) [1]: 4.5
Δ Isotope Ratio free/Δ Isotope Ratio bound (residue Asp) [1]: -2
Δ Isotope Ratio free/Δ Isotope Ratio bound (residue Glu) [1]: 1.8
Δ Isotope Ratio free/Δ Isotope Ratio bound (residue Gly) [1]: 1.2
Δ Isotope Ratio free/Δ Isotope Ratio bound (residue Ile) [1]: 2.5
Δ Isotope Ratio free/Δ Isotope Ratio bound (residue Leu) [1]: 2.3
Δ Isotope Ratio free/Δ Isotope Ratio bound (residue Lys, diDNS-Lys derivative) [1]: 2.4
Δ Isotope Ratio free/Δ Isotope Ratio bound (residue Ser) [1]: 0
Δ Isotope Ratio free/Δ Isotope Ratio bound (residue Val) [1]: 2.4
Protection Factor (residue Ala) [2]: 0.24
Protection Factor (residue Asp) [2]: 0.16
Protection Factor (residue Glu) [2]: 0.37
Protection Factor (residue Gly) [2]: 0.3
Protection Factor (residue Ile) [2]: 0.41
Protection Factor (residue Leu) [2]: 0.39
Protection Factor (residue Lys) [2]: 0.39
Protection Factor (residue Ser) [2]: -0.35
Protection Factor (residue Val) [2]: 0.38
Δ Isotope Ratio free/Δ Isotope Ratio bound (residue Ala) [3]: 6.3
Δ Isotope Ratio free/Δ Isotope Ratio bound (residue Asp) [3]: -2.5
Δ Isotope Ratio free/Δ Isotope Ratio bound (residue Glu) [3]: 6.5
Δ Isotope Ratio free/Δ Isotope Ratio bound (residue Gly) [3]: 0.5
Δ Isotope Ratio free/Δ Isotope Ratio bound (residue Ile) [3]: 2.9
Δ Isotope Ratio free/Δ Isotope Ratio bound (residue Leu) [3]: 3.1
Δ Isotope Ratio free/Δ Isotope Ratio bound (residue Lys, diDNS-Lys derivative) [3]: 3.1
Δ Isotope Ratio free/Δ Isotope Ratio bound (residue Ser) [3]: 0
Δ Isotope Ratio free/Δ Isotope Ratio bound (residue Val) [3]: 2.7
Protection Factor (residue Ala) [4]: 2
Protection Factor (residue Asp) [4]: -0.77
Protection Factor (residue Glu) [4]: 0.51
Protection Factor (residue Gly) [4]: 0.32
Protection Factor (residue Ile) [4]: 0.62
Protection Factor (residue Leu) [4]: 0.59
Protection Factor (residue Lys) [4]: 0.58
Protection Factor (residue Ser) [4]: 0
Protection Factor (residue Val) [4]: 0.61
Protection Factor (residue Ala) [5]: 7.2
Protection Factor (residue Asp) [5]: -1.5
Protection Factor (residue Glu) [5]: 6.3
Protection Factor (residue Gly) [5]: 0
Protection Factor (residue Ile) [5]: 2.2
Protection Factor (residue Leu) [5]: 2.4
Protection Factor (residue Lys) [5]: 2.3
Protection Factor (residue Ser) [5]: 0
Protection Factor (residue Val) [5]: 2
Δ Isotope Ratio free/Δ Isotope Ratio bound (residue Ala) [6]: 0.8
Δ Isotope Ratio free/Δ Isotope Ratio bound (residue Asp) [6]: 0.53
Δ Isotope Ratio free/Δ Isotope Ratio bound (residue Glu) [6]: 1.2
Δ Isotope Ratio free/Δ Isotope Ratio bound (residue Gly) [6]: 0.99
Δ Isotope Ratio free/Δ Isotope Ratio bound (residue Ile) [6]: 1.4
Δ Isotope Ratio free/Δ Isotope Ratio bound (residue Leu) [6]: 1.3
Δ Isotope Ratio free/Δ Isotope Ratio bound (residue Lys, diDNS-Lys derivative) [6]: 1.3
Δ Isotope Ratio free/Δ Isotope Ratio bound (residue Ser) [6]: -1.2
Δ Isotope Ratio free/Δ Isotope Ratio bound (residue Val) [6]: 1.3
